Experimental data reported in article PMC10536698.

Test system: CcpA (Streptococcus agalactiae GD201008-001), ORF:5b4dc1e2
Experiment: EMSA
Conditions: EMSA: 20 mM Tris-HCl pH 7.5, 30 mM KCl, 1 mM DTT, 1 mM EDTA, 10% glycerol, 20 uL, 30 min at 37 C; 10% PAGE in 0.5x TBE on ice

Row | Sequence | binding
1 | AAGTTTTCTCCTTTTGTATTACATTCTAGAGACTAAAGGAGATGTTGAAAATTTCTCCTAATCCCTTTAAATAACATTCTAATCATATCATAAATGTCTATAATTTTAAATTGTGAAAACGCCTTTTTTATGATAAACTTAAAAGTGGACTTTCTATATGAAATCTAGAAAAAAATTGAGGTATAAAC (double strand) [luxS promoter] | binds
2 | AGTATTTGTAAAAGCTAATCTTTAGATTAGGCTTTTTTAGTTTATTGATAGTTTTTGGAAGAAAATGCTTGACATTGAAAGAAAAAGAGATATAATTAAATTGCAAACGATTTCAATTCAAGGAGGGAC (double strand) [fruRKI promoter] | binds
